Data: US20250092426, “CAS ENDONUCLEASES AND RELATED METHODS” (Flagship Pioneering Innovations VII, LLC, published 2025)

Molecular target: T1, CasEnd-29 (synthetic construct)
T1 chain: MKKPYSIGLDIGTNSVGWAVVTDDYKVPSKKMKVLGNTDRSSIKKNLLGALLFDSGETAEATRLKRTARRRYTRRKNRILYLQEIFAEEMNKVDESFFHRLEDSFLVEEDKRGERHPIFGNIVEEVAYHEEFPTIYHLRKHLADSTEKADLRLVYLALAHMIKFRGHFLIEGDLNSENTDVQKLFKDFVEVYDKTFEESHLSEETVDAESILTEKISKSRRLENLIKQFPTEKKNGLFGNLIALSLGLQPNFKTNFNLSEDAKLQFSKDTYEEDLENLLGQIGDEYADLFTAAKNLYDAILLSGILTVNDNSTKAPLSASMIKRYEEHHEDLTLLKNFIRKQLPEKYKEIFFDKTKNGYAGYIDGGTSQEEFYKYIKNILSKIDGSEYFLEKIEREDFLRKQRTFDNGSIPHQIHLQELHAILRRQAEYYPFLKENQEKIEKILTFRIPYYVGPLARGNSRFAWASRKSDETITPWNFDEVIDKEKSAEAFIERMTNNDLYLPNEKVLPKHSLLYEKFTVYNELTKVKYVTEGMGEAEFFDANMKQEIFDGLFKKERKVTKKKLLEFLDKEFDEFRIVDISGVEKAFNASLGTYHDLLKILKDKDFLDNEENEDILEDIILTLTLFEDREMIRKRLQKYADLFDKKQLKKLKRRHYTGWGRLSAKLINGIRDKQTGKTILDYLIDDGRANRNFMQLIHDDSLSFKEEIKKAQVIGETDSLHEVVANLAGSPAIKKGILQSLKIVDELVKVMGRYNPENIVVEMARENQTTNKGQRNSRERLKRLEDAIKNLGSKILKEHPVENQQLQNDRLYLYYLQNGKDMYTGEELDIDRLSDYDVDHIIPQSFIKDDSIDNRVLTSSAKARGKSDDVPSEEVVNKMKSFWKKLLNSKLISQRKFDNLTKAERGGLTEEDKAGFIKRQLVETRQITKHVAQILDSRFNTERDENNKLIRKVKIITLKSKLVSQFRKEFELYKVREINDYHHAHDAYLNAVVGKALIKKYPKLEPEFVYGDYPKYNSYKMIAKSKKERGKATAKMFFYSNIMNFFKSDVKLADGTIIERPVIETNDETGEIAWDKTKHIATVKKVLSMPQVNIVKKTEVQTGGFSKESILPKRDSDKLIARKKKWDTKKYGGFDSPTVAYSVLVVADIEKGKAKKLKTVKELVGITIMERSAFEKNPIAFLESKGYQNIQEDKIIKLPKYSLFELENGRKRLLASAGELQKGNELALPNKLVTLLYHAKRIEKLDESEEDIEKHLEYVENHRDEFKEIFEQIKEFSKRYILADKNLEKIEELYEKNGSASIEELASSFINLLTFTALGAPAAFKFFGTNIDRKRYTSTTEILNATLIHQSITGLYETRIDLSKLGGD
Experiment: cell_activity; +++; HEK293T; PAM not stated
Procedure, shortened: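 BFP-to-GFP conversion via reverse transcriptase fusion with each Cas endonuclease plus template RNA: 200 ng of each plasmid nucleofected into 250,000 BFP-expressing HEK293T cells (program DS-150). Percent GFP+ cells by flow cytometry at day 4 measured editing.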

B1: BFP-to-GFP template RNA ; BFP reporter protospacer (ssRNA ; dsDNA)
RNA: GCCGAAGCACUGCACGCCGUGUUUUAGAGCUAGAAAUAGCAAGUUAAAAUAAGGCUAGUCCGUUAUCAACUUGAAAAAGUGGCACCGAGUCGGUGCACCCUGACGUACGGCGUGCAGUGCUU
DNA 1: GCCGAAGCACTGCACGCCGT
DNA 2: ACGGCGTGCAGTGCTTCGGC
  activity: ≥ 100 % of reference
